Assays:
[1] = system: p35-His6 purified from insect Sf9 cultures
[2] = system: Cdk5 purified from insect Sf9 cultures

Chain of CK1α (New England Biolabs) (P48729 2-337): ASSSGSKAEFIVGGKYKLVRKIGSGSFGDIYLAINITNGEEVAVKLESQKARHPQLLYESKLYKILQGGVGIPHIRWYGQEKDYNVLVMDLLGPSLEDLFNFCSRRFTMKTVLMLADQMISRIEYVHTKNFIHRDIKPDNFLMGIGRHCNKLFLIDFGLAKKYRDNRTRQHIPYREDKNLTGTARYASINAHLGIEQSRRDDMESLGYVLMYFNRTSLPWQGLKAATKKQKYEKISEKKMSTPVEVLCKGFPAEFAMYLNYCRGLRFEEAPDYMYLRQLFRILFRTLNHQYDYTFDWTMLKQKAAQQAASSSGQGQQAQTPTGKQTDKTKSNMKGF

Substance: CK1α (New England Biolabs)
- 32P incorporation, in vitro phosphorylation, SDS-PAGE and autoradiography [1]: CKI was able to efficiently phosphorylate p25
- stoichiometry of phosphorylation in vitro [1]: phosphorylation of p25 to approximately 2 mol/mol
- 32P incorporation, in vitro phosphorylation, SDS-PAGE and autoradiography [2]: phosphorylated Cdk5 catalytic subunit to a much lesser extent

Source: patent publication US20060223158
